Source: PMC5712427

Molecular target: Full length human APOBEC3G (human) (UniProt Q9HC16)
Assay: time-lapse high-speed AFM

stoichiometry N: 2
Substance: Full length human APOBEC3G (from UniProt Q9HC16 1-384) (enzyme)
